The values below come from doi:10.1101/2020.05.14.095372.

The target in this assay is Mature human mitochondrial heat shock protein family D member 1 (HSPD1) (human), P10809. As to the kind of experiment: cryo-EM structure. The following applies: remark: other sources report otherwise.

B1: Mature human mitochondrial heat shock protein family D member 1 (HSPD1), P10809 27-573 (natural protein)
chain: AKDVKFGADARALMLQGVDLLADAVAVTMGPKGRTVIIEQSWGSPKVTKDGVTVAKSIDLKDKYKNIGAKLVQDVANNTNEEAGDGTTTATVLARSIAKEGFEKISKGANPVEIRRGVMLAVDAVIAELKKQSKPVTTPEEIAQVATISANGDKEIGNIISDAMKKVGRKGVITVKDGKTLNDELEIIEGMKFDRGYISPYFINTSKGQKCEFQDAYVLLSEKKISSIQSIVPALEIANAHRKPLVIIAEDVDGEALSTLVLNRLKVGLQVVAVKAPGFGDNRKNQLKDMAIATGGAVFGEEGLTLNLEDVQPHDLGKVGEVIVTKDDAMLLKGKGDKAQIEKRIQEIIEQLDVTTSEYEKEKLNERLAKLSDGVAVLKVGGTSDVEVNEKKDRVTDALNATRAAVEEGIVLGGGCALLRCIPALDSLTPANEDQKIGIEIIKRTLKIPAMTIAKNAGVEGSLIVEKIMQSSSEVGYDAMAGDFVNMVEKGIIDPTKVVRTALLDAAGVASLLTTAEVVVTEIPKEEKDPGMGAMGGMGGGMGGGMF
For the molecule B1, the stoichiometry N (as a rule, a count of units in the complex or per binding partner) came to 7.
